B1: pGC-SBE/SBE heterocomposite, sense SBE (dsDNA)
DNA 1: ATATGGCGCCAACTTGTCTGATATA
DNA 2: TATATCAGACAAGTTGGCGCCATAT
B2: npGC-SBE+ (dsDNA)
DNA 1: ATATGGCTCCATAT
DNA 2: ATATGGAGCCATAT
B3: SBE+ (dsDNA)
DNA 1: ATATGTCTGATAT
DNA 2: ATATCAGACATAT
B4: pGC-SBE+ (dsDNA)
DNA 1: ATATGGCGCCATAT
DNA 2: ATATGGCGCCATAT
B5: pGC-SBE/SBE heterocomposite, inverted SBE (dsDNA)
DNA 1: ATATAGTCTGAACTTGGCGCCATAT
DNA 2: ATATGGCGCCAAGTTCAGACTATAT

Legend:
SMAD3 MH1 [1] = molecular target: T1, SMAD3 MH1 (human (Fig. 1/3 legends), UniProt P84022 10-136); assay: EMSA; EMSA: 7.5 nM Cy5-dsDNA, 200 mM Tris pH 7.2, 100 mM NaCl, 2 mM TCEP, 15 min on ice; 6% PAGE in TG buffer, 4 °C; Hill fit, n = 2; conditions: protein: recombinant; tags: N-terminal His tag cleaved (TEV or 3C); chain copies: 2; label: 5'-Cy5
SMAD4 MH1 = SMAD4 MH1 (human (Fig. 1 legend), UniProt Q13485 18-142); assay: as above; conditions: protein: recombinant; tags: N-terminal His tag cleaved (TEV or 3C); label: 5'-Cy5
SMAD3 MH1 [2] = molecular target: T1, SMAD3 MH1; assay: EMSA; Hill h = 1.80 ± 0.23; double binding; EMSA: 7.5 nM Cy5-dsDNA, 200 mM Tris pH 7.2, 100 mM NaCl, 2 mM TCEP, 15 min on ice; 6% PAGE in TG buffer, 4 °C; Hill fit, n = 2; conditions: protein: recombinant; tags: N-terminal His tag cleaved (TEV or 3C); chain copies: 2; label: 5'-Cy5
SMAD3 MH1 [3] = molecular target: T1, SMAD3 MH1; assay: EMSA; similar to sense SBE; EMSA: 7.5 nM Cy5-dsDNA, 200 mM Tris pH 7.2, 100 mM NaCl, 2 mM TCEP, 15 min on ice; 6% PAGE in TG buffer, 4 °C; Hill fit, n = 2; conditions: protein: recombinant; tags: N-terminal His tag cleaved (TEV or 3C); chain copies: 2; label: 5'-Cy5

Chain of SMAD4 MH1 (Q13485 18-142): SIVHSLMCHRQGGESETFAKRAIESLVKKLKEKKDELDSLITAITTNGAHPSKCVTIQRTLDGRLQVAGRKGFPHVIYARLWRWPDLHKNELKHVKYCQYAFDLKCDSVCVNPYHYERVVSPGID
T1 sequence (P84022 10-136): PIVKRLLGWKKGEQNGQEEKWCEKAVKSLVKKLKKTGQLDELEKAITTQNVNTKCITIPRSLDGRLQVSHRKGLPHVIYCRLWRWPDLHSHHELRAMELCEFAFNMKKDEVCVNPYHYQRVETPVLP

| Binder | Kd (SMAD4 MH1) [nM] | Kd (SMAD3 MH1 [1]) [nM] | further results |
| --- | --- | --- | --- |
| B1 | – | – | binding result (SMAD3 MH1 [1]): binds |
| B2 | 1340 ± 744 | 660 ± 280 | – |
| B3 | 919 ± 70 | 366 ± 29 | – |
| B4 | 886 ± 274 | – | Kd (SMAD3 MH1 [2]): 293 ± 32 nM |
| B5 | – | – | binding result (SMAD3 MH1 [3]): binds |
